Assay results as given in paper PMC9482650, “Quantitative fragmentomics allow affinity mapping of interactomes” (Nature Communications, 2022).

How the values were obtained:
Assay in all cases: holdup assay
Set-up in all cases: key: below the threshold = too weak to quantify, mostly under pKd 3.1 to 4
GRIP1_2, Q9Y3R0 = target: T1, GRIP1_2, Q9Y3R0
T1 sequence (Q9Y3R0 145-248, limits assumed, looked up): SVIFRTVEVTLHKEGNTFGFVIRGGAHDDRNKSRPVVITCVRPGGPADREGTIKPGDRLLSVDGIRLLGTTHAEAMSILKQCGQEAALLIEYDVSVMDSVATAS

TJP2_1, Q9UDY2 = target: TJP2_1, Q9UDY2
Inadl_8, Q8NI35 = target: Inadl_8, Q8NI35
ARHGEF12, Q9NZN5-2 = target: ARHGEF12, Q9NZN5-2
MAGI2_2, Q86UL8 = target: MAGI2_2, Q86UL8
APBA1_1, Q02410 = target: T2, APBA1_1, Q02410
T2 sequence (Q02410 651-752, limits assumed, looked up): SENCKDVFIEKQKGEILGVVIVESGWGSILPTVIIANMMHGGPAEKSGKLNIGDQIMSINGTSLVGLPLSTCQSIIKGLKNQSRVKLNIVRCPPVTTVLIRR

IL16_1, Q14005 = target: IL16_1, Q14005
MAST2, Q6P0Q8 = target: MAST2, Q6P0Q8
MAGI2_5, Q86UL8 = target: MAGI2_5, Q86UL8
NHERF4_4, Q86UT5 = target: NHERF4_4, Q86UT5
HTRA4, P83105 = target: T3, HTRA4, P83105
T3 sequence (P83105 378-476, limits assumed, looked up): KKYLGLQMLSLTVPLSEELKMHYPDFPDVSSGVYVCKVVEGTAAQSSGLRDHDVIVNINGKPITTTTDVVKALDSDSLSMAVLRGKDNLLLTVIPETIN

SNTA1, Q13424 = target: T4, SNTA1, Q13424
T4 sequence (Q13424 82-180, limits assumed, looked up): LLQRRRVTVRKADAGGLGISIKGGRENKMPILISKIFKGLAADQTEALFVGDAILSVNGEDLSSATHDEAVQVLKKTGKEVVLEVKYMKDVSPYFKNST

DLG1_2, Q12959 = target: DLG1_2, Q12959
LIMK2, P53671 = target: LIMK2, P53671
SNTB1, Q13884 = target: T5, SNTB1, Q13884
T5 sequence (Q13884 107-205, limits assumed, looked up): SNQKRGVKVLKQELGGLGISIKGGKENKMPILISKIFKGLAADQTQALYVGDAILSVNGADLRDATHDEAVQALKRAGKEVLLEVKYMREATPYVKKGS

Inadl_10, Q8NI35 = target: Inadl_10, Q8NI35
DLG5_1, Q8TDM6 = target: DLG5_1, Q8TDM6
DVL3, Q92997 = target: T6, DVL3, Q92997
T6 sequence (Q92997 244-331, limits assumed, looked up): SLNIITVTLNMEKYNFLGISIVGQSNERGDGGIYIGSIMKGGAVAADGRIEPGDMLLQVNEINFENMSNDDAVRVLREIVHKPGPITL

RAPGEF6, Q8TEU7 = target: T7, RAPGEF6, Q8TEU7
T7 sequence (Q8TEU7 525-625, limits assumed, looked up): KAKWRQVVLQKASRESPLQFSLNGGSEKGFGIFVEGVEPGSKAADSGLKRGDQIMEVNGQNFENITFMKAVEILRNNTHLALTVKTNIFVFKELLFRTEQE

GRIP2_3, Q9C0E4 = target: GRIP2_3, Q9C0E4
SNTG1, Q9NSN8 = target: T8, SNTG1, Q9NSN8
T8 sequence (Q9NSN8 52-150, limits assumed, looked up): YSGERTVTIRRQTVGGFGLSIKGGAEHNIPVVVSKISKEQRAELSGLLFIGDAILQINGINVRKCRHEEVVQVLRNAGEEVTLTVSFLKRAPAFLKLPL

TX1BP3, O14907 = target: T9, TX1BP3, O14907
T9 sequence (O14907 10-122, limits assumed, looked up): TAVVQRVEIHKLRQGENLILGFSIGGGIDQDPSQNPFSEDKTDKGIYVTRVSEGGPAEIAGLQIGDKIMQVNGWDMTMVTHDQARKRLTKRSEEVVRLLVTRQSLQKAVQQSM

RHPN1, Q8TCX5 = target: T10, RHPN1, Q8TCX5
T10 sequence (Q8TCX5 508-602, limits assumed, looked up): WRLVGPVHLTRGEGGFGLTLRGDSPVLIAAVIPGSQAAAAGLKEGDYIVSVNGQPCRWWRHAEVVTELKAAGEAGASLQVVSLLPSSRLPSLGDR

NHERF4_1, Q86UT5-2 = target: NHERF4_1, Q86UT5-2
LIN7C, Q9NUP9 = target: T11, LIN7C, Q9NUP9
T11 sequence (Q9NUP9 88-185, limits assumed, looked up): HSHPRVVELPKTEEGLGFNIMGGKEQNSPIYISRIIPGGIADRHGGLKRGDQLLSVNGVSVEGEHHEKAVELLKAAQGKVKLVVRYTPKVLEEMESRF

DLG2_3, Q15700 = target: DLG2_3, Q15700
[1] = plain residues with an end cap or a label only (N-terminal biotin on a linker: ttds)
[2] = plain residues with an end cap or a label only (N-terminal biotin on a linker: ado-ado)
[3] = plain residues with an end cap or a label only (N-terminal biotin on a linker: gsgsgs; C-terminal amide)

TJP2_1, Q9UDY2, sequence (Q9UDY2 24-128): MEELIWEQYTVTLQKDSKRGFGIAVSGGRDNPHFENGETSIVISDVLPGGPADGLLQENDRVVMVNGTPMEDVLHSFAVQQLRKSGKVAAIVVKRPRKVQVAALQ
MAGI2_2, Q86UL8, sequence (Q86UL8 410-522): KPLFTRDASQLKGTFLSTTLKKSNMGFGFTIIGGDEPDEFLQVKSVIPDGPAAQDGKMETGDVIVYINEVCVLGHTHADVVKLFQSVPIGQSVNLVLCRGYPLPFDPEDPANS
DLG5_1, Q8TDM6, sequence (Q8TDM6 617-713): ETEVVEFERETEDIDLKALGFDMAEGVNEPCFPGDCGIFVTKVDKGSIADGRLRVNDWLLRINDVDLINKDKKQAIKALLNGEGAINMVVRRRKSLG
MAST2, Q6P0Q8, sequence (Q6P0Q8 1099-1202): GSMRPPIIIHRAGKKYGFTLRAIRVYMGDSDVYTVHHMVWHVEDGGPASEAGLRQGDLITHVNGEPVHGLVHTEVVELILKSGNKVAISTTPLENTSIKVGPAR
GRIP2_3, Q9C0E4, sequence (Q9C0E4 238-339): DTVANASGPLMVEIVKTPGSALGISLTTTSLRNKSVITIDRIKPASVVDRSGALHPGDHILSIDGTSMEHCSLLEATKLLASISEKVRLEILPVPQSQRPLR
Inadl_8, Q8NI35, sequence (Q8NI35 1425-1530): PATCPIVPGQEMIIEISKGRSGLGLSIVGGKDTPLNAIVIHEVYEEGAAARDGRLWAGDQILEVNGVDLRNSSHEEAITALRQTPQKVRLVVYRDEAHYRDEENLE
NHERF4_1, Q86UT5-2, sequence (Q86UT5 other isoform, or with tags, fused parts or gaps): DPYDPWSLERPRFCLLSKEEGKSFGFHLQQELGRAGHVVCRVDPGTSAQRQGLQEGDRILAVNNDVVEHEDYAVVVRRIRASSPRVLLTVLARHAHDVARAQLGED
Inadl_10, Q8NI35, sequence (Q8NI35 1673-1763): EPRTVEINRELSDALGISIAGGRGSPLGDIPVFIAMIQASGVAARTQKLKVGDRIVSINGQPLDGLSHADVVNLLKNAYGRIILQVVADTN
IL16_1, Q14005, sequence (Q14005 210-306): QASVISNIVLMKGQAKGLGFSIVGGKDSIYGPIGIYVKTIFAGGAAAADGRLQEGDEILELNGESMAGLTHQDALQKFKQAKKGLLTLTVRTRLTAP
DLG1_2, Q12959, sequence (Q12959 314-412): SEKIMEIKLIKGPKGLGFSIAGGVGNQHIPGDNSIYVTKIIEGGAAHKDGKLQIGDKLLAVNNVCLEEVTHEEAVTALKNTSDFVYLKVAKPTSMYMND
NHERF4_4, Q86UT5, sequence (Q86UT5 464-550): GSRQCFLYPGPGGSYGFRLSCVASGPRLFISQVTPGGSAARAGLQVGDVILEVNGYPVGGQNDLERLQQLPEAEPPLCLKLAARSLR
MAGI2_5, Q86UL8, sequence (Q86UL8 915-1017): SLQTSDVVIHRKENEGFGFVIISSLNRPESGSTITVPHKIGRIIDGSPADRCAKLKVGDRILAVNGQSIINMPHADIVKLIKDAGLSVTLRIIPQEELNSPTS
ARHGEF12, Q9NZN5-2, sequence (Q9NZN5 other isoform, or with tags, fused parts or gaps): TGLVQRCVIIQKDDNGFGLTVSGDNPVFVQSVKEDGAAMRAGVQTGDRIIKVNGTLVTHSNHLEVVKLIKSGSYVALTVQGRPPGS
LIMK2, P53671, sequence (P53671 143-248): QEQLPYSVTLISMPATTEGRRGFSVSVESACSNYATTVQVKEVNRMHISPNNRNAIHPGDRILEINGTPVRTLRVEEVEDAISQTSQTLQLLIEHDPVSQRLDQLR

For HRTCYLVTQL [ASIC3, Q9UHC3], the pKd (GRIP1_2, Q9Y3R0; [1]) was “below the threshold”, the pKd (TJP2_1, Q9UDY2; [1]) was 3.89 and the pKd (Inadl_8, Q8NI35; [1]) was 3.8. The pKd (ARHGEF12, Q9NZN5-2; [1]) was 5.63, the pKd (MAGI2_2, Q86UL8; [1]) was 4.14 and the pKd (APBA1_1, Q02410; [1]) was “below the threshold”. The pKd (IL16_1, Q14005; [1]) was “below the threshold”, the pKd (MAST2, Q6P0Q8; [1]) was 5.24 and the pKd (MAGI2_5, Q86UL8; [1]) was 4.63. For the same binder, the pKd (NHERF4_4, Q86UT5; [1]) was 3.45, the pKd (HTRA4, P83105; [1]) was 4.83 and the pKd (SNTA1, Q13424; [1]) was 3.88. For the same binder, the pKd (DLG1_2, Q12959; [1]) was 4.12, the pKd (LIMK2, P53671; [1]) was “below the threshold” and the pKd (SNTB1, Q13884; [1]) was 4.07. The pKd (Inadl_10, Q8NI35; [1]) was 3.84, the pKd (DLG5_1, Q8TDM6; [1]) was “below the threshold” and the pKd (DVL3, Q92997; [1]) was 3.3. For the same binder, the pKd (RAPGEF6, Q8TEU7; [1]) was 3.49, the pKd (GRIP2_3, Q9C0E4; [1]) was “below the threshold” and the pKd (SNTG1, Q9NSN8; [1]) was 3.72. For the same binder, the pKd (TX1BP3, O14907; [1]) was 5.08, the pKd (RHPN1, Q8TCX5; [1]) was 4.46 and the pKd (NHERF4_1, Q86UT5-2; [1]) was 4.49. For the same binder, the pKd (LIN7C, Q9NUP9; [1]) was 3.41 and the pKd (DLG2_3, Q15700; [1]) was 4.17.

In the case of LHLHGTGIQV [EPHA7, Q15375], the pKd (GRIP1_2, Q9Y3R0; [2]) is reported as “below the threshold”, the pKd (TJP2_1, Q9UDY2; [2]) is reported as “below the threshold” and the pKd (Inadl_8, Q8NI35; [2]) is reported as “below the threshold”. The pKd (ARHGEF12, Q9NZN5-2; [2]) was 4.19, the pKd (MAGI2_2, Q86UL8; [2]) was 3.51 and the pKd (APBA1_1, Q02410; [2]) was “below the threshold”. The pKd (IL16_1, Q14005; [2]) was “below the threshold”, the pKd (MAST2, Q6P0Q8; [2]) was 4.63 and the pKd (MAGI2_5, Q86UL8; [2]) was “below the threshold”. For the same binder, the pKd (NHERF4_4, Q86UT5; [2]) was 4.07, the pKd (HTRA4, P83105; [2]) was 4.1 and the pKd (SNTA1, Q13424; [2]) was “below the threshold”. The pKd (DLG1_2, Q12959; [2]) was 3.6, the pKd (LIMK2, P53671; [2]) was “below the threshold” and the pKd (SNTB1, Q13884; [2]) was “below the threshold”. For the same binder, the pKd (Inadl_10, Q8NI35; [2]) was “below the threshold”, the pKd (DLG5_1, Q8TDM6; [2]) was “below the threshold” and the pKd (DVL3, Q92997; [2]) was “below the threshold”. For the same binder, the pKd (RAPGEF6, Q8TEU7; [2]) was “below the threshold”, the pKd (GRIP2_3, Q9C0E4; [2]) was “below the threshold” and the pKd (SNTG1, Q9NSN8; [2]) was 3.57. For the same binder, the pKd (TX1BP3, O14907; [2]) was 4.12, the pKd (RHPN1, Q8TCX5; [2]) was “below the threshold” and the pKd (NHERF4_1, Q86UT5-2; [2]) was 3.85. The pKd (LIN7C, Q9NUP9; [2]) was 4.08 and the pKd (DLG2_3, Q15700; [2]) was “below the threshold”.

With ELIQDTSTSFSTTREW [ARAP3_int, Q8WWN8] the pKd (GRIP1_2, Q9Y3R0; [3]) was “below the threshold”, the pKd (TJP2_1, Q9UDY2; [3]) was “below the threshold” and the pKd (Inadl_8, Q8NI35; [3]) was “below the threshold”. The pKd (ARHGEF12, Q9NZN5-2; [3]) was “below the threshold”, the pKd (MAGI2_2, Q86UL8; [3]) was “below the threshold” and the pKd (APBA1_1, Q02410; [3]) was “below the threshold”. For the same binder, the pKd (IL16_1, Q14005; [3]) was “below the threshold”, the pKd (MAST2, Q6P0Q8; [3]) was “below the threshold” and the pKd (MAGI2_5, Q86UL8; [3]) was “below the threshold”. The pKd (NHERF4_4, Q86UT5; [3]) was 3.55, the pKd (HTRA4, P83105; [3]) was “below the threshold” and the pKd (SNTA1, Q13424; [3]) was “below the threshold”. For the same binder, the pKd (DLG1_2, Q12959; [3]) was “below the threshold”, the pKd (LIMK2, P53671; [3]) was “below the threshold” and the pKd (SNTB1, Q13884; [3]) was “below the threshold”. For the same binder, the pKd (Inadl_10, Q8NI35; [3]) was “below the threshold”, the pKd (DLG5_1, Q8TDM6; [3]) was “below the threshold” and the pKd (DVL3, Q92997; [3]) was “below the threshold”. The pKd (RAPGEF6, Q8TEU7; [3]) was “below the threshold”, the pKd (GRIP2_3, Q9C0E4; [3]) was “below the threshold” and the pKd (SNTG1, Q9NSN8; [3]) was “below the threshold”. The pKd (TX1BP3, O14907; [3]) was 3.92, the pKd (RHPN1, Q8TCX5; [3]) was “below the threshold” and the pKd (NHERF4_1, Q86UT5-2; [3]) was “below the threshold”. It also gave a pKd (LIN7C, Q9NUP9; [3]) of 4.11 and a pKd (DLG2_3, Q15700; [3]) of 3.69.
